# Measured values: article PMC7855945 (Cellular microbiology, 2020)
# B1: recombinant A. fumigatus Hsp90 (rAfHsp90), full length, 6×His-tagged (natural protein)
# chain: not shown
# Target: the molecule itself
# Assay: SEC
protein,measurement,value
B1,stoichiometry N,2
